This note sets out measurements from paper PMC2557009, “YB-1 promotes microtubule assembly in vitro through interaction with tubulin and microtubules” (BMC Biochemistry, 2008).

One may read the stoichiometry N as a count of units in the complex or per binding partner.

This series concerns the molecule itself. The experiment in a line: cross-linking; zero length cross-linker EDC (5 mM) / sulfo-NHS (12 mM); 1 μM tubulin and 0.3, 0.5, 0.8 or 1.2 μM YB-1, or each alone; 50 mM MES-KOH pH 6.8, 1 mM MgCl2, 1 mM EGTA, 0.5 mM GTP, 1 h at 30°C; SDS-PAGE, Coomassie and Western blot. A general note: In western blotting, separated proteins are transferred to a membrane and probed.

B1: YB-1 (natural protein)
chain: not shown
notes: source: E. coli BL21(DE3), pET 3-1-YB-1 construct, purified (heparin-Sepharose, Sephacryl S-200)
As for B1, the “stoichiometry N” value worked out at 2.
